In patent US20140087995A1 (published 2014):
Numbered stars: 1 amine (or outer) side, 2 acyl side, 3 side chain; on linkers, the order of the positions; unused ones are H or OH. Bridge positions count the residues as written; N and C are the ends. Side chains are listed from the residue outwards. Ends that are not written are not given here. * marks the point of attachment. C20 diacid = O=C(O)CCCCCCCCCCCCCCCCCCC(=O)*; γGlu = O=C(O)[C@H](CCC(=O)[*:2])N[*:1]

Tests used:
[1] = target: T1, human calcitonin receptor (human, UniProt P30988 25-474); experiment: ratio of IC50 at hCTR to IC50 at the human amylin receptor (reference)
T1 construct: whole, on cells; also called hCTR; hCT
T1 sequence (looked up): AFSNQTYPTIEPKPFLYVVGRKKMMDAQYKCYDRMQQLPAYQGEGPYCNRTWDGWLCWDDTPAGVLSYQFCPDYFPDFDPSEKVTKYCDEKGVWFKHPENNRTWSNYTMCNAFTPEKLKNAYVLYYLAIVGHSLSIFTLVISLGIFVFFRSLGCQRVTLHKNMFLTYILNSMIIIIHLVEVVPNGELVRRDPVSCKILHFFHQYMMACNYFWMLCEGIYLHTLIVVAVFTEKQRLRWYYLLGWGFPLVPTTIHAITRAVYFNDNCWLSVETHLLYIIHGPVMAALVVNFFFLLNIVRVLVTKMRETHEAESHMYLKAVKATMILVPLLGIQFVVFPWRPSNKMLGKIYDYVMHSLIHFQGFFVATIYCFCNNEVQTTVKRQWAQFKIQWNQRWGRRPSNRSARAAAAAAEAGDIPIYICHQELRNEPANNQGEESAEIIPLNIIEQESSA
How it was run: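 IC₅₀ values were derived by one-site competition analysis of SPA counts. Cell membranes (35 ng/μL) with SPA beads were incubated with test compounds for 120 min at 25° C in Hepes buffer, pH 7.4, containing CaCl2, MgCl₂, OA and Tween20.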

[2] = target: T1, human calcitonin receptor; experiment: SPA competition binding, membranes with human calcitonin receptor, displacement of 125I-calcitonin (Assay VII)
How it was run: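 BHK hCTR membranes 35 ng/μL + SPA beads 0.05 mg/well; buffer 50 mM Hepes pH 7.4, 1 mM CaCl2, 5 mM MgCl₂, 0.1% OA, 0.02% Tween20. 120 min, 25° C., shaking. Scintillation count; IC50 by one-site binding competition.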

B1: N^ε1-[(4S)-4-carboxy-4-[[(4S)-4-carboxy-4-(19-carboxynonadecanoylamino)butanoyl]amino]butanoyl]-[Asp14,Arg17,Pro22,Pro26,Asp35]-h-amylin (peptide)
peptide: K([γGlu-γGlu-C20 diacid])CNTATCATQRLADFLRHSSNPFGAPLSSTNVGSDTY-NH2
modifications: disulfide 2-7; N-terminus assumed
SMILES: CC(C)C[C@H](NC(=O)[C@H](CCCNC(=N)N)NC(=O)[C@H](CCC(N)=O)NC(=O)[C@@H](NC(=O)[C@H](C)NC(=O)[C@@H]1CSSC[C@H](NC(=O)[C@@H](N)CCCCNC(=O)CC[C@H](NC(=O)CC[C@H](NC(=O)CCCCCCCCCCCCCCCCCCC(=O)O)C(=O)O)C(=O)O)C(=O)N[C@@H](CC(N)=O)C(=O)N[C@@H]([C@@H](C)O)C(=O)N[C@@H](C)C(=O)N[C@@H]([C@@H](C)O)C(=O)N1)[C@@H](C)O)C(=O)N[C@@H](C)C(=O)N[C@@H](CC(=O)O)C(=O)N[C@@H](Cc1ccccc1)C(=O)N[C@@H](CC(C)C)C(=O)N[C@@H](CCCNC(=N)N)C(=O)N[C@@H](Cc1c[nH]cn1)C(=O)N[C@@H](CO)C(=O)N[C@@H](CO)C(=O)N[C@@H](CC(N)=O)C(=O)N1CCC[C@H]1C(=O)N[C@@H](Cc1ccccc1)C(=O)NCC(=O)N[C@@H](C)C(=O)N1CCC[C@H]1C(=O)N[C@@H](CC(C)C)C(=O)N[C@@H](CO)C(=O)N[C@@H](CO)C(=O)N[C@H](C(=O)N[C@@H](CC(N)=O)C(=O)N[C@H](C(=O)NCC(=O)N[C@@H](CO)C(=O)N[C@@H](CC(=O)O)C(=O)N[C@H](C(=O)N[C@@H](Cc1ccc(O)cc1)C(N)=O)[C@@H](C)O)C(C)C)[C@@H](C)O
notes: also called compound 3
In the case of B1, the “Ratio hCT/hAmylin binding” value [1] is reported as 17.3 and the IC50 [2] is reported as 19.5 nM.

B2: N^ε1-[(4S)-4-carboxy-4-[[(4S)-4-carboxy-4-(19-carboxynonadecanoylamino)butanoyl]amino]butanoyl]-[Glu14,Arg17,Pro21,Pro27,Pro37]-h-amylin (peptide)
peptide: K([γGlu-γGlu-C20 diacid])CNTATCATQRLAEFLRHSSPNFGAIPSSTNVGSNTP-NH2
modifications: disulfide 2-7 (inferred)
notes: also called compound 13
In the case of B2, the “Ratio hCT/hAmylin binding” value [1] is reported as 1.2 and the IC50 [2] is reported as 0.305 nM.

B3: N{Alpha-1}-[(4S)-4-carboxy-4-(19-carboxynonadecanoylamino)butanoyl]-[Glu14,Arg17,Pro21,Pro27,Lys34]-h-amylin (peptide)
peptide: {C20 diacid-γGlu}-KCNTATCATQRLAEFLRHSSPNFGAIPSSTNVGKNTY-NH2
modifications: disulfide 2-7
SMILES: CC[C@H](C)[C@H](NC(=O)[C@H](C)NC(=O)CNC(=O)[C@H](Cc1ccccc1)NC(=O)[C@H](CC(N)=O)NC(=O)[C@@H]1CCCN1C(=O)[C@H](CO)NC(=O)[C@H](CO)NC(=O)[C@H](Cc1c[nH]cn1)NC(=O)[C@H](CCCNC(=N)N)NC(=O)[C@H](CC(C)C)NC(=O)[C@H](Cc1ccccc1)NC(=O)[C@H](CCC(=O)O)NC(=O)[C@H](C)NC(=O)[C@H](CC(C)C)NC(=O)[C@H](CCCNC(=N)N)NC(=O)[C@H](CCC(N)=O)NC(=O)[C@@H](NC(=O)[C@H](C)NC(=O)[C@@H]1CSSC[C@H](NC(=O)[C@H](CCCCN)NC(=O)CC[C@H](NC(=O)CCCCCCCCCCCCCCCCCCC(=O)O)C(=O)O)C(=O)N[C@@H](CC(N)=O)C(=O)N[C@@H]([C@@H](C)O)C(=O)N[C@@H](C)C(=O)N[C@@H]([C@@H](C)O)C(=O)N1)[C@@H](C)O)C(=O)N1CCC[C@H]1C(=O)N[C@@H](CO)C(=O)N[C@@H](CO)C(=O)N[C@H](C(=O)N[C@@H](CC(N)=O)C(=O)N[C@H](C(=O)NCC(=O)N[C@@H](CCCCN)C(=O)N[C@@H](CC(N)=O)C(=O)N[C@H](C(=O)N[C@@H](Cc1ccc(O)cc1)C(N)=O)[C@@H](C)O)C(C)C)[C@@H](C)O
notes: also called compound 36
B3 was tested, and the “Ratio hCT/hAmylin binding” value [1] was 15.7 and the IC50 [2] was 6.3 nM.

B4: N^ε1-[(4S)--4-carboxy-4-(19-carboxynonadecanoylamino)butanoyl]-[Glu14,Arg17,Pro21,Pro27,Pro37]-h-amylin (peptide)
peptide: K([γGlu-C20 diacid])CNTATCATQRLAEFLRHSSPNFGAIPSSTNVGSNTP-NH2
modifications: disulfide 2-7; N-terminus assumed
SMILES: CC[C@H](C)[C@H](NC(=O)[C@H](C)NC(=O)CNC(=O)[C@H](Cc1ccccc1)NC(=O)[C@H](CC(N)=O)NC(=O)[C@@H]1CCCN1C(=O)[C@H](CO)NC(=O)[C@H](CO)NC(=O)[C@H](Cc1c[nH]cn1)NC(=O)[C@H](CCCNC(=N)N)NC(=O)[C@H](CC(C)C)NC(=O)[C@H](Cc1ccccc1)NC(=O)[C@H](CCC(=O)O)NC(=O)[C@H](C)NC(=O)[C@H](CC(C)C)NC(=O)[C@H](CCCNC(=N)N)NC(=O)[C@H](CCC(N)=O)NC(=O)[C@@H](NC(=O)[C@H](C)NC(=O)[C@@H]1CSSC[C@H](NC(=O)[C@@H](N)CCCCNC(=O)CC[C@H](NC(=O)CCCCCCCCCCCCCCCCCCC(=O)O)C(=O)O)C(=O)N[C@@H](CC(N)=O)C(=O)N[C@@H]([C@@H](C)O)C(=O)N[C@@H](C)C(=O)N[C@@H]([C@@H](C)O)C(=O)N1)[C@@H](C)O)C(=O)N1CCC[C@H]1C(=O)N[C@@H](CO)C(=O)N[C@@H](CO)C(=O)N[C@H](C(=O)N[C@@H](CC(N)=O)C(=O)N[C@H](C(=O)NCC(=O)N[C@@H](CO)C(=O)N[C@@H](CC(N)=O)C(=O)N[C@H](C(=O)N1CCC[C@H]1C(N)=O)[C@@H](C)O)C(C)C)[C@@H](C)O
notes: also called compound 12
For B4, the “Ratio hCT/hAmylin binding” value [1] was 2.5 and the IC50 [2] was 0.353 nM.

B5: N^ε-[(4S)-4-carboxy-4-(19-carboxynonadecanoylamino)butanoyl]Lys[Arg1,Arg17,Pro21,Pro27,His35]-h-amylin (peptide)
peptide: K([γGlu-C20 diacid])RCNTATCATQRLANFLRHSSPNFGAIPSSTNVGSHTY-NH2
modifications: disulfide 3-8; N-terminus assumed
SMILES: CC[C@H](C)[C@H](NC(=O)[C@H](C)NC(=O)CNC(=O)[C@H](Cc1ccccc1)NC(=O)[C@H](CC(N)=O)NC(=O)[C@@H]1CCCN1C(=O)[C@H](CO)NC(=O)[C@H](CO)NC(=O)[C@H](Cc1c[nH]cn1)NC(=O)[C@H](CCCNC(=N)N)NC(=O)[C@H](CC(C)C)NC(=O)[C@H](Cc1ccccc1)NC(=O)[C@H](CC(N)=O)NC(=O)[C@H](C)NC(=O)[C@H](CC(C)C)NC(=O)[C@H](CCCNC(=N)N)NC(=O)[C@H](CCC(N)=O)NC(=O)[C@@H](NC(=O)[C@H](C)NC(=O)[C@@H]1CSSC[C@H](NC(=O)[C@H](CCCNC(=N)N)NC(=O)[C@@H](N)CCCCNC(=O)CC[C@H](NC(=O)CCCCCCCCCCCCCCCCCCC(=O)O)C(=O)O)C(=O)N[C@@H](CC(N)=O)C(=O)N[C@@H]([C@@H](C)O)C(=O)N[C@@H](C)C(=O)N[C@@H]([C@@H](C)O)C(=O)N1)[C@@H](C)O)C(=O)N1CCC[C@H]1C(=O)N[C@@H](CO)C(=O)N[C@@H](CO)C(=O)N[C@H](C(=O)N[C@@H](CC(N)=O)C(=O)N[C@H](C(=O)NCC(=O)N[C@@H](CO)C(=O)N[C@@H](Cc1c[nH]cn1)C(=O)N[C@H](C(=O)N[C@@H](Cc1ccc(O)cc1)C(N)=O)[C@@H](C)O)C(C)C)[C@@H](C)O
notes: extended by one residue at the N-terminus; also called compound 44
B5 was tested, and the “Ratio hCT/hAmylin binding” value [1] was 17.7 and the IC50 [2] was 4.87 nM.

B6: N^α1-[2-[2-[2-[[2-[2-[2-[[(4S)-4-carboxy-4-(19-carboxynonadecanoylamino)butanoyl]amino]ethoxy]ethoxy]acetyl]amino]ethoxy]ethoxy]acetyl]-[Glu14,Arg17,Pro21,Pro27 … (peptide)
peptide: KCNTATCATQRLAEFLRHSSPNFGAIPSSTNVGSNTY
modifications: C20 diacid-gGlu-2xOEG on the alpha amino group of the N-terminal residue; disulfide bridge Cys2-Cys7; C-terminal amide
notes: also called compound 19
B6 was tested, and the “Ratio hCT/hAmylin binding” value [1] was 36.7 and the IC50 [2] was 20.4 nM.

B7: N^α1 N^α1-[(4S)-4-carboxy-4-[[(4S)-4-carboxy-4-(19-carboxynonadecanoylamino)butanoyl]amino]butanoyl]-[Glu14,Arg17,Pro21,Pro27]-h-amylin (peptide)
peptide: {C20 diacid-γGlu-γGlu}-KCNTATCATQRLAEFLRHSSPNFGAIPSSTNVGSNTY-NH2
modifications: disulfide 2-7
SMILES: CC[C@H](C)[C@H](NC(=O)[C@H](C)NC(=O)CNC(=O)[C@H](Cc1ccccc1)NC(=O)[C@H](CC(N)=O)NC(=O)[C@@H]1CCCN1C(=O)[C@H](CO)NC(=O)[C@H](CO)NC(=O)[C@H](Cc1c[nH]cn1)NC(=O)[C@H](CCCNC(=N)N)NC(=O)[C@H](CC(C)C)NC(=O)[C@H](Cc1ccccc1)NC(=O)[C@H](CCC(=O)O)NC(=O)[C@H](C)NC(=O)[C@H](CC(C)C)NC(=O)[C@H](CCCNC(=N)N)NC(=O)[C@H](CCC(N)=O)NC(=O)[C@@H](NC(=O)[C@H](C)NC(=O)[C@@H]1CSSC[C@H](NC(=O)[C@H](CCCCN)NC(=O)CC[C@H](NC(=O)CC[C@H](NC(=O)CCCCCCCCCCCCCCCCCCC(=O)O)C(=O)O)C(=O)O)C(=O)N[C@@H](CC(N)=O)C(=O)N[C@@H]([C@@H](C)O)C(=O)N[C@@H](C)C(=O)N[C@@H]([C@@H](C)O)C(=O)N1)[C@@H](C)O)C(=O)N1CCC[C@H]1C(=O)N[C@@H](CO)C(=O)N[C@@H](CO)C(=O)N[C@H](C(=O)N[C@@H](CC(N)=O)C(=O)N[C@H](C(=O)NCC(=O)N[C@@H](CO)C(=O)N[C@@H](CC(N)=O)C(=O)N[C@H](C(=O)N[C@@H](Cc1ccc(O)cc1)C(N)=O)[C@@H](C)O)C(C)C)[C@@H](C)O
notes: also called compound 15
With B7 the “Ratio hCT/hAmylin binding” value [1] was 26 and the IC50 [2] was 15.5 nM.
